Results on one molecule are retold here after patent publication US5958954, “Synthesis and use of retinoid compounds having negative hormone and/or antagonist activities” (Allergan Sales, Inc.).

The target in data set [1] is RXR-alpha (UniProt P19793 P19793:1-462). In words: EMSA; RXR alone did not produce the receptor-specific shift. Conditions: tags: reticulocyte lysate from pBluescript(II)(SK) RXR-alpha cDNA; label: end-labeled. The source says: (§1) In vitro translated RAR-α was produced essentially as described under Example 8, except that ^35S-labeled methoinine was omitted. In vitro translated RXR-α was similarly produced using a pBluescript(II)(SK)-based vector containing the RXR-α cDNA described by Mangelsdorf, et al. in *Nature* 345:224–229 (1990) as the template for generating in vitro transcripts. The labeled RAR-α and RXR-α, alone or in combination, or prebound with AGN 193109 (10^-6M) either alone or in combination, were allowed to interact with an end-labeled DR-5 RARE double-stranded probe having the sequence 5'-[…]-3' (SEQ ID NO:1). The binding mixture was electrophoresed on a non-denaturing polyacrylamide gel and autoradiographed according to standard laboratory procedures. A single retarded species appearing on the autoradiograph that was common to all the lanes on the gel represented an undefined probe-binding factor present in the reticulocyte lysate. Only the RAR/RXR combination gave rise to a retinoid receptor-specific retarded species. Neither RAR alone nor RXR alone bound the probe to produce this shifted species.

For data set [2], the target named is T1, RAR-alpha (UniProt P10276 P10276:1-462).
T1 sequence: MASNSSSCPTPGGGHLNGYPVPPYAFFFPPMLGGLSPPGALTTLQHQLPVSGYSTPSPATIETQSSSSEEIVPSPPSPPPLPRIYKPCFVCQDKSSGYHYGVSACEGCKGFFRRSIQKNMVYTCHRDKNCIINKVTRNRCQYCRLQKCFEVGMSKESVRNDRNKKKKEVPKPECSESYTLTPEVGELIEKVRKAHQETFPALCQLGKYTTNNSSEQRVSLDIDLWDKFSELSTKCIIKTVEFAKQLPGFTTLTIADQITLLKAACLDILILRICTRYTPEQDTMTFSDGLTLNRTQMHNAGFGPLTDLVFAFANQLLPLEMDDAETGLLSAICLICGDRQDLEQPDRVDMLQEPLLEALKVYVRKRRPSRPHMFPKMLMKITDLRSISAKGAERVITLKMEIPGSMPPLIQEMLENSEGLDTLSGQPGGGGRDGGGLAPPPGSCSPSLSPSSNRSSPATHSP
Nature of the data set: EMSA; RAR alone did not produce the receptor-specific shift. As to conditions: tags: TNT reticulocyte lysate from pGEM3Z RAR-alpha cDNA; label: end-labeled.
Text: as §1

Chain of RXR-alpha (P19793 whole entry, one chain of several): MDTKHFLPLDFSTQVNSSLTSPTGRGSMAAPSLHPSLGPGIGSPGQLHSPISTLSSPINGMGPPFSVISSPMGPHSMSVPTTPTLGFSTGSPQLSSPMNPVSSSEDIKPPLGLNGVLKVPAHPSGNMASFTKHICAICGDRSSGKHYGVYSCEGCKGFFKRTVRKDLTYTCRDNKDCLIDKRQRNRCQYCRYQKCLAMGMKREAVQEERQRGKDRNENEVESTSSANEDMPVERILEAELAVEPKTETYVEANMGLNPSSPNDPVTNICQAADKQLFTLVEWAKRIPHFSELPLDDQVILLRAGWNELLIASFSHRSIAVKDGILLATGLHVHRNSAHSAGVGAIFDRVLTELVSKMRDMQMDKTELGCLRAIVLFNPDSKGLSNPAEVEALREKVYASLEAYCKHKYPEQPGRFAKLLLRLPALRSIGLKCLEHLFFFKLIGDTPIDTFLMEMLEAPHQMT

B1: DR-5 RARE probe (dsDNA)
DNA 1: TCAGGTCACCAGGAGGTCAGA
DNA 2: TCTGACCTCCTGGTGACCTGA
Turning to B1, the binding result in data set [1] and in data set [2] was “no binding” in each case.
